US20240384003A1 (PRECISION BIOLOGICS, published 2024)

Biological target: T1, CEACAM5-D2-312* (human, UniProt P06731 35-311)
T1 sequence (looked up): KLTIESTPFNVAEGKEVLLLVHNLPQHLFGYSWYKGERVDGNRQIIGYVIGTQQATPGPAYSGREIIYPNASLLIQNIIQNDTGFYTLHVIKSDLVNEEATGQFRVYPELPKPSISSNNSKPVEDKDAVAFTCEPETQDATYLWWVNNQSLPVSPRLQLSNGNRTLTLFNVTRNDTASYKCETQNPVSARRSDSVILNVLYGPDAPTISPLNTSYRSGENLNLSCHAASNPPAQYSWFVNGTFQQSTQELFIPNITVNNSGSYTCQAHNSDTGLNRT
Assay: ELISA on truncated CEACAM5 from transfected-cell supernatant
Method: Different truncated C-terminus CEACAM6 gene constructs were designed as illustrated in FIG. 13. […] Different truncated C-terminus CEACAM5 gene constructs were designed as illustrated in FIG. 15. The procedure for the expression of the truncated C-terminus constructs was the same as to the method described above. All deletions were transfected into HEK293T cells, harvest the cell pellet and/or supernatant after 48-72 hours. Supernatant binding activity was quantitated by ELISA.

B1: NEO-201 (antibody, human IgG1, kappa, V domains shown)
VH: QVQLVQSGAEVKKPGASVKVSCKASGYTFTDYAMHWVRQAPGQRLEWMGLISTYSGDTKYNQNFQGRVTMTVDKSASTAYMELSSLRSEDTAVYYCARGDYSGSRYWFAYWGQGTLVTVSS
VL: DIQMTQSPSSLSASVGDRVTITCQASENIYGALNWYQRKPGKSPKLLIYGASNLATGMPSRFSGSGSGTDYTFTISSLQPEDIATYYCQQVLSSPYTFGGGTKLEIKR
notes: also called H16C3-Abb*
binding result: no binding
